The source of these data is PMC5105191.

Assay [1] deals with FITC–PHC2_(32–61) (human). In words: fluorescence polarisation; 20 nM fluorescein-labelled PHC2 32-61 titrated with BMI1 UBL variants or MEL18 UBL; 50 mM bis tris pH 7.5, 50 mM NaCl, 1 mM TCEP, 0.01% BSA, 0.25% tween-20; 1 h incubation.
The target in assay [2] is BMI1_(121–235), BMI1 UBL domain, wild type (UniProt P35226). As to the kind of experiment: ITC; VP-ITC, 25 °C, 50 mM phosphate pH 6.5, 50 mM NaCl, 1 mM TCEP; BMI1 121-235 in the cell (22 or 9 μM), titrated with trx-PHC2 1-79 (164 μM) or PHC2 33-56 (100 μM). (In general: ITC needs no label: the signal is the heat of the interaction.)
Assay [3] concerns the target FITC–PHC2_(32–61) (human). In words: fluorescence polarisation; 20 nM fluorescein-labelled PHC2 32-61 titrated with BMI1 UBL variants or MEL18 UBL; 50 mM bis tris pH 7.5, 50 mM NaCl, 1 mM TCEP, 0.01% BSA, 0.25% tween-20; 1 h incubation. This is another data set of the same source. Background: Fluorescence polarisation rises when a labelled molecule tumbles more slowly, as on binding a larger partner.

Where two headings read alike, the source gives them in different places. Some results are limits rather than exact numbers.

In general, Kd refers to a measure of binding affinity in units of concentration. Low values mean a tighter complex, high ones a looser complex. “BMI1 UBL domain R165E (from UniProt P35226 121-235) (domain or fragment)” gave a dissociation constant Kd in assay [1] of 5900 nM.

A word on the stoichiometry N: it is a count of units in the complex or per binding partner. In assay [2], trx-PHC2_(1–79) (domain or fragment) yielded a Kd of 398 nM and a stoichiometry N of 1.

In turn, “BMI1 UBL domain F189Q (from UniProt P35226 121-235) (domain or fragment)” had a Kd in assay [1] of 409 nM. This counts as sub-micromolar.

In assay [1], “BMI1 UBL domain H174E (from UniProt P35226 121-235) (domain or fragment)” registered a Kd of 20100 nM.

Consider “BMI1_(121–235), BMI1 UBL domain, wild type (from UniProt P35226 121-235) (domain or fragment)”, for which the Kd in assay [1] turned out to be 215 nM.

In assay [1], “BMI1 UBL domain M170E (from UniProt P35226 121-235) (domain or fragment)” came in with a Kd of 17000 nM.

In assay [1], “BMI1 UBL domain R165E/H174E double mutant (from UniProt P35226 121-235) (domain or fragment)” showed a Kd of over 50000 nM.

In assay [2], PHC2_(33–56) peptide showed an equilibrium dissociation constant (Kd) of 413 nM.

As for “BMI1 UBL domain I212E (from UniProt P35226 121-235) (domain or fragment)”, in assay [1], the dissociation constant Kd stood at 1040 nM.

B1: MEL18_(121-237) fragment, MEL18 UBL domain (domain or fragment)
chain: EKGALSDDEIVSLSIEFYEGARDRDEKKGPLENGDGDKEKTGVRFLRCPAAMTVMHLAKFLRNKMDVPSKYKVEVLYEDEPLKEYYTLMDIAYIYPWRRNGPLPLKYRVQPACKRLT
For the molecule B1, in assay [3], the Kd was found to be 812 nM.
